Numbered stars: 1 amine (or outer) side, 2 acyl side, 3 side chain; on linkers, the order of the positions; unused ones are H or OH. Bridge positions count the residues as written; N and C are the ends. Side chains are listed from the residue outwards. Ends that are not written are not given here. * marks the point of attachment. C20 diacid = O=C(O)CCCCCCCCCCCCCCCCCCC(=O)*; γGlu = O=C(O)[C@H](CCC(=O)[*:2])N[*:1]
T1: human calcitonin receptor (human, UniProt P30988 25-474)
T1 construct: whole, on cells; Membranes in a scintillation proximity assay (Assay VII); also called hCTR; hCT
T1 sequence (looked up): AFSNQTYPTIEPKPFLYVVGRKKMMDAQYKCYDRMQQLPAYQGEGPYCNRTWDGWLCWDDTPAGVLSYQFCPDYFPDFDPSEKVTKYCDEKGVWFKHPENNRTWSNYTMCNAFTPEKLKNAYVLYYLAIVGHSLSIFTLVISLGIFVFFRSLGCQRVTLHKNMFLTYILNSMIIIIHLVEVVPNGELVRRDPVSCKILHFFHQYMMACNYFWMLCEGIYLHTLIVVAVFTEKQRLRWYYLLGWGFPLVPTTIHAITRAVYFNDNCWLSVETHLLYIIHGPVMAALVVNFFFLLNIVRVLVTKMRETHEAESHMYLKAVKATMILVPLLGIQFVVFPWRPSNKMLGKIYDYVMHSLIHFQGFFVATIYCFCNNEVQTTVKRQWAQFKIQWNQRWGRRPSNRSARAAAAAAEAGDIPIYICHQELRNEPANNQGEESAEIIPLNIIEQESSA

T2: human calcitonin receptor (human, UniProt P30988 25-474)
T2 sequence (looked up): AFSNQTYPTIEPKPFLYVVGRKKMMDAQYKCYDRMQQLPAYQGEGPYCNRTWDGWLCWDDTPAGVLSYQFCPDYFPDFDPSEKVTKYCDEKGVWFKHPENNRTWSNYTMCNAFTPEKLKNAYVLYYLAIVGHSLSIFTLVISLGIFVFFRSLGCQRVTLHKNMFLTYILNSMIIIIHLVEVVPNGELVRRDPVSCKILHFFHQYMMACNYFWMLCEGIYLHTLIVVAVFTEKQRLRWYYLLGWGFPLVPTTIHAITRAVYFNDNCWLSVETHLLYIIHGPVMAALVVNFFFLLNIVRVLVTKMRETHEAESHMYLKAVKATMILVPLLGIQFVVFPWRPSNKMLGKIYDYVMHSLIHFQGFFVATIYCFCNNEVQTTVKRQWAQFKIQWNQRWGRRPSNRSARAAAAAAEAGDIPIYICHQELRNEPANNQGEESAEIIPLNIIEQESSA

T3: human amylin receptor (amylin 3(a) receptor: human calcitonin receptor with RAMP-3) (human, UniProt P30988 25-474; O60896 24-148)
T3 sequence (looked up) 1: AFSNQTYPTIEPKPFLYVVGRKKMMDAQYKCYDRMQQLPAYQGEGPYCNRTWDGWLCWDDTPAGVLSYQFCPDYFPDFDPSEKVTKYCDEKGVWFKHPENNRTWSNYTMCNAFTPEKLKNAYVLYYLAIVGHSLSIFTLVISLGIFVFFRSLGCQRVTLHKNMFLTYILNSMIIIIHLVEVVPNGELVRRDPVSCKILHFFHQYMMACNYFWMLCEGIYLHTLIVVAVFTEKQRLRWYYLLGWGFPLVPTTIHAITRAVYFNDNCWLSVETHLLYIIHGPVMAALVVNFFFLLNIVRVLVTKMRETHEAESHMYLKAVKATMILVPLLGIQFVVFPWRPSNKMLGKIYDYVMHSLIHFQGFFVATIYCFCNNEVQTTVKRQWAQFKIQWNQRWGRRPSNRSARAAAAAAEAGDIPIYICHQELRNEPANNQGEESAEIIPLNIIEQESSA
T3 sequence (looked up) 2: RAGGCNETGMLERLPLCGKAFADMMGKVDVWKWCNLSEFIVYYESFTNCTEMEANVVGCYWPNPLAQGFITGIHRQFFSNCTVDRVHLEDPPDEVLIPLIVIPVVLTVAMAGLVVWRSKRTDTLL


Assays:
[1] = target: T1, human calcitonin receptor; assay: ratio of IC50 at human calcitonin receptor to IC50 at human amylin receptor (reference), SPA binding assays
Procedure: The resulting pellet was resuspended, homogenized and centrifuged (20.000 rpm, 15 min) in a buffer containing 20 mM Na-HEPES and 0.1 mM EDTA (pH 7.4, buffer 2). The resulting pellet was resuspended in buffer 2 and protein concentration was measured (BCA protein Assay, Pierce). The homogenate was kept cold during the whole procedure. The membranes were kept at −80° C. until use. The assay was performed in a 384 well Optiplate (PerkinElmer) in a total volume of 40 ul. Membranes were mixed with SPA beads. Final concentration of membranes 35 ng/μL final and SPA beads was 0.05 mg/well. Test-compounds were dissolved in DMSO and further diluted in assay buffer (50 mM Hepes, pH 7.4, 1 mM CaCl2, 5 mM MgCl₂, 0.1% OA and 0.02% Tween20). […] The final mixture was incubated with shaking at 400 rpm for 120 min at 25° C. prior to centrifugation (1500 rpm, 10 min). Samples were analyzed on TopCounter™ (Packard). The IC₅₀ was calculated using (one site binding competition analysis) GraphPad Prism5 as a measure of receptor affinity.
Membranes were prepared in the following way; the cells were rinsed with PBS and incubated with Versene for approximately 5 min before harvesting. The cells were flushed with PBS and the cell-suspension was centrifuged for 5 min at 1000 rpm. Cells were homogenized (Ultrathurrax) in a buffer containing 20 mM Na-HEPES and 10 mM EDTA (pH 7.4) and centrifuged at 20.000 rpm for 15 min. The resulting pellet was resuspended, homogenized and centrifuged (20.000 rpm, 15 min) in a buffer containing 20 mM Na-HEPES and 0.1 mM EDTA (pH 7.4, buffer 2). The resulting pellet was resuspended in buffer 2 and protein concentration was measured (BCA protein Assay, Pierce). The homogenate was kept cold during the whole procedure. The membranes were kept at −80° C. until use. Assay was performed in a 384 well Optiplate (PerkinElmer) in a total volume of 40 ul. Membranes were mixed with SPA beads.

[2] = target: T1, human calcitonin receptor; assay: SPA competition binding, displacement of 125I-calcitonin from membranes with human calcitonin receptor (Assay VII)
Procedure: Membranes were prepared in the following way; the cells were rinsed with PBS and incubated with Versene for approximately 5 min before harvesting. The cells were flushed with PBS and the cell-suspension was centrifuged for 5 min at 1000 rpm. Cells were homogenized (Ultrathurrax) in a buffer containing 20 mM Na-HEPES and 10 mM EDTA (pH 7.4) and centrifuged at 20.000 rpm for 15 min. The resulting pellet was resuspended, homogenized and centrifuged (20.000 rpm, 15 min) in a buffer containing 20 mM Na-HEPES and 0.1 mM EDTA (pH 7.4, buffer 2). The resulting pellet was resuspended in buffer 2 and protein concentration was measured (BCA protein Assay, Pierce). The homogenate was kept cold during the whole procedure. The membranes were kept at −80° C. until use. Assay was performed in a 384 well Optiplate (PerkinElmer) in a total volume of 40 ul. Membranes were mixed with SPA beads. Final concentration of membranes 35 ng/μL final and Final concentration of SPA beads was 0.05 mg/well. Test-compounds were dissolved in DMSO and further diluted in assay buffer (50 mM Hepes, pH 7.4, 1 mM CaCl2, 5 mM MgCl₂, 0.1% OA and 0.02% Tween20). […] The final mixture was incubated for 120 min with shaking at 400 rpm at 25° C. prior to centrifugation (1500 rpm, 10 min). Samples were analyzed on TopCounter™ (Packard). The […] was calculated using (one site binding competition analysis) GraphPad Prism5 as a measure of receptor affinity.

[3] = target: T2, human calcitonin receptor; assay: cell-based or functional assay
[4] = target: T3, human amylin receptor (amylin 3(a) …); assay: cell-based or functional assay
[5] = target: T3, human amylin receptor (amylin 3(a) …); assay: SPA competition, displacement of 125I-rat amylin from membranes of BHK cells with the human amylin 3(a) receptor
Procedure: The binding assay was performed using scintillation proximity assay (SPA) beads (RPNQ0001) from PerkinElmer and cell membranes from the Amylin 3(a)/CRE-luc cells (as described in Assay (II)) were used. Membranes were prepared in the following way; the cells were rinsed with PBS and incubated with Versene for approximately 5 min before harvesting. The cells were flushed with PBS and the cell-suspension was centrifuged for 5 min at 1000 rpm. Cells were homogenized (ultrathurrax) in a buffer containing 20 mM Na-HEPES and 10 mM EDTA (pH 7.4) and centrifuged at 20.000 rpm for 15 min. The resulting pellet was resuspended, homogenized and centrifuged (20.000 rpm, 15 min) in a buffer containing 20 mM Na-HEPES and 0.1 mM EDTA (pH 7.4, buffer 2). The resulting pellet was resuspended in buffer 2 and protein concentration was measured (BCA protein Assay, Pierce). The homogenate was kept cold during the whole procedure. The membranes were kept at −80° C. until use. The assay was performed in a 384 well Optiplate (PerkinElmer) in a total volume of 40 ul. Membranes were mixed with SPA beads. Final concentration of membranes 35 ng/μL final and SPA beads was 0.05 mg/well. Test-compounds were dissolved in DMSO and further diluted in assay buffer (50 mM Hepes, pH 7.4, 1 mM CaCl2, 5 mM MgCl₂, 0.1% OA and 0.02% Tween20). […] The final mixture was incubated with shaking at 400 rpm for 120 min at 25° C. prior to centrifugation (1500 rpm, 10 min). Samples were analyzed on TopCounter™ (Packard). The IC₅₀ was calculated using (one site binding competition analysis) GraphPad Prism5 as a measure of receptor affinity.

| Ratio hCT/hAmylin binding [1] | IC50 [2] | Ratio hCT/hAmylin funct. [3] | hCTR funct. EC50 [3] | hAmylin-R funct. EC50 [4] | IC50 [5] | Binder |
| --- | --- | --- | --- | --- | --- | --- |
| 26.4 | 26.1 nM | – | – | – | – | K([γGlu-C20 diacid])CNTATCATQRLAEFLRHSSPNFGAIPSSTNVGSHTY-NH2 (disulfide 2-7 (inferred)) |
| – | – | 6.7 | 1.38 nM | 0.205 nM | 1.13 nM | K([γGlu-γGlu-C20 diacid])CNTATCATQRLADFLRHSSNPFGAPLSSTNVGSDTY-NH2 (disulfide 2-7; N-terminus assumed; SMILES CC(C)C[C@H](NC(=O)[C@H](CCCNC(=N)N)NC(=O)[C@H](CCC(N)=O)NC(=O)[C@@H](NC(=O)[C@H](C)NC(=O)[C@@H]1CSSC[C@H](NC(=O)[C@@H](N)CCCCNC(=O)CC[C@H](NC(=O)CC[C@H](NC(=O)CCCCCCCCCCCCCCCCCCC(=O)O)C(=O)O)C(=O)O)C(=O)N[C@@H](CC(N)=O)C(=O)N[C@@H]([C@@H](C)O)C(=O)N[C@@H](C)C(=O)N[C@@H]([C@@H](C)O)C(=O)N1)[C@@H](C)O)C(=O)N[C@@H](C)C(=O)N[C@@H](CC(=O)O)C(=O)N[C@@H](Cc1ccccc1)C(=O)N[C@@H](CC(C)C)C(=O)N[C@@H](CCCNC(=N)N)C(=O)N[C@@H](Cc1c[nH]cn1)C(=O)N[C@@H](CO)C(=O)N[C@@H](CO)C(=O)N[C@@H](CC(N)=O)C(=O)N1CCC[C@H]1C(=O)N[C@@H](Cc1ccccc1)C(=O)NCC(=O)N[C@@H](C)C(=O)N1CCC[C@H]1C(=O)N[C@@H](CC(C)C)C(=O)N[C@@H](CO)C(=O)N[C@@H](CO)C(=O)N[C@H](C(=O)N[C@@H](CC(N)=O)C(=O)N[C@H](C(=O)NCC(=O)N[C@@H](CO)C(=O)N[C@@H](CC(=O)O)C(=O)N[C@H](C(=O)N[C@@H](Cc1ccc(O)cc1)C(N)=O)[C@@H](C)O)C(C)C)[C@@H](C)O, also called compound 3) |

Reference: patent publication US20140087995A1 (published 2014)
